pKd: −log10 of the molar value.

In one assay the target is PRMT5cat (human) (UniProt O14744). The assay can be described thus: AUC.
The next assay has as its target pICln (UniProt P54105). In words: AUC.

Chain of pICln (P54105 whole entry): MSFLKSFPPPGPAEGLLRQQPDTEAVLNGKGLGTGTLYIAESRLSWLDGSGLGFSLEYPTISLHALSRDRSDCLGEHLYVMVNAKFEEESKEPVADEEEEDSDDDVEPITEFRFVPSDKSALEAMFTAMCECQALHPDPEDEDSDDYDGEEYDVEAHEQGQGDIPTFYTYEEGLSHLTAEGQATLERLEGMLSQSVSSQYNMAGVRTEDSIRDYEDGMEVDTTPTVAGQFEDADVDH
Chain of SmD3 (P62318 whole entry): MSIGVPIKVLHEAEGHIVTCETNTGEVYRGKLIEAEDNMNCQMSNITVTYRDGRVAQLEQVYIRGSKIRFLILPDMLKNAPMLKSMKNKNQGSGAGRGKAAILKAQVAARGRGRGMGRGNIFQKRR

In the assay with PRMT5cat (human), “PRMT5cat (from UniProt O14744 296-637) (domain or fragment)” gave a pKd of 4.70 and a stoichiometry N of 2.
In turn, “SmD3 (from UniProt P62318 1-126) (natural protein)” returned a stoichiometry N in the assay with pICln of 1.
